Reference: patent US20200247894A1 (Regeneron, published 2020)
Substitutions are numbered along the chain they refer to.

B1: H4H12857P (antibody, human IgG4 S228P, kappa, V domains shown)
VH: EVQLVESGGGVVRPGGSLRLSCAASGFTFDDFDMSWVRQGPGKGLEWVSGINWHGSSTGYADSVKGRFTISRDNAKNSLYLQMSSLRAEDTALYHCVRGGTIVGATTPLDYWGQGTLVTVSS
VL: DIQMTQSPSSLSASVGDRVTMTCRASRTISSYLSWYQQKSGKVPNLLIFGASSLQSGVPSRFSASGSGTDFTLIISSLQPEDFATYYCQQSYSSPLTFGGGTKVEIKR
notes: fully human anti-IL2Rgamma mAb, human IgG4 Fc; also called REGN9432
B2: H4H12899P (antibody, human IgG4 S228P, kappa, V domains shown)
VH: QVQLVESGGDLVKPGGSLRLSCATSGFTFSDFYMTWIRQAPGKGLEWISYISNSGSIVKYADSVKGRFTISRDNAKNSLYLQMNSLRAEDTAIYYCARFYGDRWGQGTLVTVSS
VL: DIQLTQSPSFLSASVGDRVTITCWASQGISTFLAWYQQKPGKAPKLLIYAASTLQSGVPSRFSGSGSGTDFTLTISSLQPEDFATYHCQQLNNYPWTFGQGTKVEIKR
notes: fully human anti-IL2Rgamma mAb, human IgG4 Fc
B3: H4H12900P (antibody, human IgG4 S228P, kappa, V domains shown)
VH: QVQLVESGGGLVKPGGSLRLSCEASGFTFNDFYMTWIRQAPGKGLEWIAYISKSGDKMRYADSVKGRFSTSRDNAKNSLSLQMNSLRAEDTAVYYCARFYGDIWGQGTLVTVSS
VL: B2 VL with G28D, T31S, A34V, K45N, T53A, D70E, T85S, H87Y, Q89E
notes: as for B2
B4: H4H12926P2 (antibody, human IgG4 S228P, kappa, V domains shown)
VH: QVQLQQSGPGLVKPSQTLSLTCAISGDSVSSNIAAWNWIRLSPSRGLEWLGRTFFRSTWFYDYSLSVKGRITINPDTSKNQFSLHLNSVTPEDAAVYYCARTGRRWSLDYWGQGTLVTVSS
VL: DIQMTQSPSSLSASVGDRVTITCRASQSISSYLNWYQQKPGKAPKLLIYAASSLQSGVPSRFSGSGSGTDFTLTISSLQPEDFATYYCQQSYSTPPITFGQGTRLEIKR
notes: as for B2
B5: H4H12890P (antibody, human IgG4 S228P, kappa, V domains shown)
VH: EVQLVESGGGLVQPGGSLRLSCAASGFTFNNYAMHWVRQAPGKGLEYVSSISSSGGSTYYEDSVKGRFTISRDNSKNTLYLQMGSLRAEDMAVYYCARSFYGSGTYYDTFDMWGQGTMVTVSS
VL: DIQMTQSPSSLSASIGDRVTITCRASQSISRYLNWYQQKPGKAPKLLIYAASSLQSGVPSRFSASGSGTDFTLTISSLQPEDFATYYCQQSYSTPFTFGQGTKLEIKR
notes: as for B2
B6: H4H12927P2 (antibody, human IgG4 S228P, kappa, V domains shown)
VH: EVQLVESGGGVVRPGGSLRLSCATSGFTFDDYGMSWVRQVPGKGLEWVSSVNRNGGTTDYADSVKGRFTISRDNAKRSLFLQMNSLRAEDTALYHCATGELFFDYWGQGTLVTVSS
VL: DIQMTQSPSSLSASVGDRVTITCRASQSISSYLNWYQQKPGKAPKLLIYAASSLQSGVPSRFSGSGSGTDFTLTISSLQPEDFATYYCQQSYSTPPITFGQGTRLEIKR
notes: as for B2
B7: H4H12858P (antibody, human IgG4 S228P, kappa, V domains shown)
VH: EVQLVESGGDLVQPGGSLRLSCTASGFIFRNYAMNWVRQAPGKGLEWLSGILGSNDNTYYVDSVKGRFTISRDNSRNTLYLQMNSLRAEDSAVYYCAKGDAGGFDYWGQGTLVTVSS
VL: DVVMTQSPLSLPVILGQPASISCRSSQSLVSSDGNTYLNWFQQRPGQSPRRLIYKVSNRDSGVPDRFSGSGSGTDFTLKISRVEAEDVGAYYCMQGSYWPPTFGQGTKLEIKR
notes: fully human anti-IL2Rgamma mAb, human IgG4 Fc; also called REGN9433
B8: H4H12859P (antibody, human IgG4 S228P, kappa, V domains shown)
VH: QVQLVQSGAEVKKPGASVRVSCKASGYTFTDYDIHWVRQAPGHGLEWMGWINPNSGGTNYAQKFQGRVTMTRDTSISTVYMDLSRLRSDDTAVYYCARADYSSSYYYYGMDVWGQGTTVTVSS
VL: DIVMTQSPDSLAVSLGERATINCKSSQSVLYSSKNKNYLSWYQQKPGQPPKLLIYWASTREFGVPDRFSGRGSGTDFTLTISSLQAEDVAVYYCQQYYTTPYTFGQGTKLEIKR
notes: as for B2

What was measured:
[1] = target: T1, Mouse IL2Rγ extracellular domain expressed with a C-terminal myc-myc-hexahistidine tag (mouse); experiment: SPR Biacore 4000, anti-hFc-captured mAb, 37 C
T1 construct: whole entry is the tagged construct; also called mIL-2Rg-MMH
T1 chain: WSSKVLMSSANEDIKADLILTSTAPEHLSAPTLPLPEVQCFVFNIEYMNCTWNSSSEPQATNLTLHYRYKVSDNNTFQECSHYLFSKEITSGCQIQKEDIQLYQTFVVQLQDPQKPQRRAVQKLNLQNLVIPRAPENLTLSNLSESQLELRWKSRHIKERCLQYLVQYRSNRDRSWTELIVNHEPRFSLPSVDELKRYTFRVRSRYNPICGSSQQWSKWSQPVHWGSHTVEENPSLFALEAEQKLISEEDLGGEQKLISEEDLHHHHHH
Procedure: (§1) Equilibrium dissociation constants (KD values) for IL-2Rγ binding to purified anti-IL2Rγ monoclonal antibodies were determined using a Biacore 4000 instrument equipped with a real-time surface plasmon resonance biosensor. All binding studies were performed in 10 mM HEPES, 150 mM NaCl, 3 mM EDTA, and 0.05% v/v Surfactant Tween-20, pH 7.4 (HBS-ET) running buffer at 25° C. and 37° C. The Biacore sensor surface was first derivatized by amine coupling with a monoclonal mouse anti-human Fc antibody (GE, # BR-1008-39) to capture anti-IL2Rγ monoclonal antibodies.
(§2) The dissociation of monoclonal antibody bound IL2Rγ reagents were monitored for 8-10 minutes in HBS-ET running buffer. Kinetic association (kₐ) and dissociation (kd) rate constants were determined by fitting the real-time sensorgrams to a 1:1 binding model using Scrubber 2.0c curve fitting software. Binding dissociation equilibrium constants (KD) and dissociative half-lives (t_{1/2}) were calculated from the kinetic rate constants as: […]

[2] = target: T2, Rat IL2Rγ extracellular domain expressed with a C-terminal myc-myc-hexahistidine tag (rat); experiment: SPR Biacore 4000, anti-hFc-captured mAb, 37 C
T2 construct: whole entry is the tagged construct; also called rIL-2Rg-MMH; rat IL-2Rg-MMH
T2 chain: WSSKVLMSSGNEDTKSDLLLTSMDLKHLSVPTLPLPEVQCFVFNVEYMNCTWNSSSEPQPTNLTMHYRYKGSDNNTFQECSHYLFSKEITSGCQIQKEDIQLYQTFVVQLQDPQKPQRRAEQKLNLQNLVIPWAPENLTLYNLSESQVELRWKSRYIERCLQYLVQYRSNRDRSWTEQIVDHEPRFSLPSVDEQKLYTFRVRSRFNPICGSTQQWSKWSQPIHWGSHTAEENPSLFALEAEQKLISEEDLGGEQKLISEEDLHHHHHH
Procedure: as §1, §2

[3] = target: T1, Mouse IL2Rγ extracellular domain …; experiment: SPR Biacore 4000, anti-hFc-captured mAb, 25 C
Procedure: as §1, §2

[4] = target: T2, Rat IL2Rγ extracellular domain …; experiment: SPR Biacore 4000, anti-hFc-captured mAb, 25 C
Procedure: as §1, §2

[5] = target: T3, Macaca fascicularis IL2Rγ extracellular domain expressed with a C-terminal myc-myc-hexahistidine tag (Macaca fascicularis); experiment: SPR Biacore 4000, anti-hFc-captured mAb, 37 C
T3 construct: whole entry is the tagged construct; also called mfIL-2Rg-MMH
T3 chain: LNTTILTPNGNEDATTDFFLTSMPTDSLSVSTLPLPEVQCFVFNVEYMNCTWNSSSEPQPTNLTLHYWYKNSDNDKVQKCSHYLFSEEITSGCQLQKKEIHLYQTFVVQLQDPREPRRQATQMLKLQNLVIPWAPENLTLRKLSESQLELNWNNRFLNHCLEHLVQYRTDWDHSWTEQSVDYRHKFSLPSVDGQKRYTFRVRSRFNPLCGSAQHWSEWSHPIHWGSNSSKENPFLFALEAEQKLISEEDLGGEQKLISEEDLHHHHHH
Procedure: as §1, §2

[6] = target: T4, Human IL2Rγ extracellular domain expressed with a C-terminal mouse IgG2a Fc tag (human); experiment: SPR Biacore 4000, anti-hFc-captured mAb, 37 C
T4 construct: whole entry is the Fc-fused construct; also called hIL-2Rg-mFc
T4 chain: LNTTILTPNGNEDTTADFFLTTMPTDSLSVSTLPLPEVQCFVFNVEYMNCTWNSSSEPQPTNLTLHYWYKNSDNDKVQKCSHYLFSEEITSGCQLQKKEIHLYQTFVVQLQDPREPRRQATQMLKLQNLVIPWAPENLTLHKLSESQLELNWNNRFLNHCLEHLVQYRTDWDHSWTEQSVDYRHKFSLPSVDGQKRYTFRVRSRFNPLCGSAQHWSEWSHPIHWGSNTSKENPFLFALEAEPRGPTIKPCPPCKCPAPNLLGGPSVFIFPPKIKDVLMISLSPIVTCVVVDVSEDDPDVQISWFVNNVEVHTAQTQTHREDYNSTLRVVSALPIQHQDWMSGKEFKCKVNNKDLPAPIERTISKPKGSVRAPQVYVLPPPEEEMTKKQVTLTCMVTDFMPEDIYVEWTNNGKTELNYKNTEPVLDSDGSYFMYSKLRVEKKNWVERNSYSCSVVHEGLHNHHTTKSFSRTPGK
Procedure: as §1, §2

[7] = target: T4, Human IL2Rγ extracellular domain …; experiment: SPR Biacore 4000, anti-hFc-captured mAb, 25 C
Procedure: as §1, §2

Binder	100 nM Ag Bound [1] [RU]	100 nM Ag Bound [2] [RU]	100 nM Ag Bound [3] [RU]	binding result [3]	100 nM Ag Bound [4] [RU]	binding result [4]	100 nM Ag Bound [5] [RU]	Kd [5] [nM]	koff [5] [s⁻¹]	kon [5] [M⁻¹ s⁻¹]	t1/2 [5] [min]	also measured
B1	1	1	5	no binding (tested: 100 nM)	1	no binding (tested: 100 nM)	–	–	–	–	–	–
B2	19	16	51	–	39	–	31	6.71	0.00216	322000	5	Kd [1]: 55.9 nM; koff [1]: 0.0108 s⁻¹; kon [1]: 193000 M⁻¹ s⁻¹; t1/2 [1]: 1.1 min; Kd [2]: 51.6 nM; koff [2]: 0.00753 s⁻¹; kon [2]: 146000 M⁻¹ s⁻¹; t1/2 [2]: 1.5 min; Kd [3]: 18.4 nM; koff [3]: 0.00167 s⁻¹; kon [3]: 90600 M⁻¹ s⁻¹; t1/2 [3]: 7 min; Kd [4]: 21.7 nM; koff [4]: 0.00153 s⁻¹; kon [4]: 70400 M⁻¹ s⁻¹; t1/2 [4]: 8 min
B3	32	27	76	–	57	–	38	3.18	0.00154	483000	8	Kd [1]: 6.11 nM; koff [1]: 0.00317 s⁻¹; kon [1]: 519000 M⁻¹ s⁻¹; t1/2 [1]: 4 min; Kd [2]: 8.7 nM; koff [2]: 0.00363 s⁻¹; kon [2]: 417000 M⁻¹ s⁻¹; t1/2 [2]: 3.2 min; Kd [3]: 3.76 nM; koff [3]: 0.000467 s⁻¹; kon [3]: 124000 M⁻¹ s⁻¹; t1/2 [3]: 25 min; Kd [4]: 6.02 nM; koff [4]: 0.000619 s⁻¹; kon [4]: 103000 M⁻¹ s⁻¹; t1/2 [4]: 19 min
B4	0	2	0	no binding (tested: 100 nM)	2	no binding (tested: 100 nM)	–	–	–	–	–	50 nM Ag Bound [6]: 11 RU; Kd [6]: 16 nM; koff [6]: 0.00326 s⁻¹; kon [6]: 204000 M⁻¹ s⁻¹; t1/2 [6]: 4 min; 50 nM Ag Bound [7]: 46 RU; Kd [7]: 5.21 nM; koff [7]: 0.000962 s⁻¹; kon [7]: 185000 M⁻¹ s⁻¹; t1/2 [7]: 12 min
B5	1	0	1	no binding (tested: 100 nM)	0	no binding (tested: 100 nM)	20	14	0.00131	93600	9	–
B6	1	1	1	no binding (tested: 100 nM)	2	no binding (tested: 100 nM)	–	–	–	–	–	–
B7	0	0	2	no binding (tested: 100 nM)	0	no binding (tested: 100 nM)	47	4.77	0.00148	309000	8	50 nM Ag Bound [6]: 37 RU; Kd [6]: 1.49 nM; koff [6]: 0.00025 s⁻¹; kon [6]: 167000 M⁻¹ s⁻¹; t1/2 [6]: 46 min; 50 nM Ag Bound [7]: 46 RU; Kd [7]: 0.855 nM; koff [7]: 9.94e-05 s⁻¹; kon [7]: 116000 M⁻¹ s⁻¹; t1/2 [7]: 116 min
B8	0	1	2	no binding (tested: 100 nM)	2	no binding (tested: 100 nM)	10	320	0.0201	62800	0.6	–
